From US20260055205A1 (published 2026)
Positions count from the first letter of the chain named. Numbers in names are those of the source.

T1: cyCD3e-Fc (cynomolgus monkey, UniProt Q95LI5 22-117)
T1 sequence (looked up): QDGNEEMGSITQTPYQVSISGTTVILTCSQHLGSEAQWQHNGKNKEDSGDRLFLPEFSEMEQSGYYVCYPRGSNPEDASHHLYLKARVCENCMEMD

B1: AC3471 (PSMA.262 with CD3.23) (bispecific antibody, V domains shown)
VHH: QVQLVESGGGVVQPGRSLRLSCAASGRTFGIYVWGWVRQAPGKEREFVGAISWSGSNRKVSDSVKGRFTISRDNSKNTLYLQMNSLRAEDTAVYYCAASNKLYGRTWYDFNESDYWGQGTQVTVSS
VL: ELVVTQEPSLTVSPGGTVTLTCRSSNGAVTSSNYANWVQQKPGQAPRGLIGGTNKRAPGTPARFSGSLLGGKAALTLSGVQPEDEAVYYCALWYPNLWVFGGGTKLTVL
VH: EVQLLESGGGIVQPGGSLKLSCAASGFTFNTYAMNWVRQAPGKGLEWVARIRSKYNNYATYYADSVKDRFTISRDDSKNTVYLQMNNLKTEDTAVYYCVRHENFGNSYVSWFAHWGQGTLVTVSS
notes: Domains of one TCE chain; also called CD3.23 WT
B2: CD3.227 (bispecific antibody, V domains shown)
VH: B1 VH with L5V, K19R, A49G, S53T, Y55R, D68G, N87S
VL: B1 VL
notes: paTCE with PSMA.262; also called AC3658
B3: CD3.228 (bispecific antibody, V domains shown)
VH: B1 VH with L5V, K19R, N30S, A49G, S53T, Y55R, D68G, N87S
VL: B1 VL
notes: paTCE with PSMA.262; also called AC3659
B4: CD3.103 (bispecific antibody, V domains shown)
VH: B1 VH with A49G, Y58G, D68G, N87S
VL: B1 VL
notes: paTCE with PSMA.5; also called AC3432; A49G, Y52cG, D65G, N82bS
B5: PSMA.6 (uTCE of AC2728) (bispecific antibody, V domains shown)
VH: B1 VHH with Q1E, W34M, G49A, K59L, Y95F, K101R, Q121T
notes: TCE with CD3.23; also called VHH14
B6: PSMA.265 (bispecific antibody, V domains shown)
VH: B1 VHH with W34F, G49A, I51M
notes: TCE with CD3.23; also called AC3474
B7: PSMA.279 (bispecific antibody, V domains shown)
VH: B1 VHH with W34M, V37F, K101R, L102M
notes: TCE with CD3.23; also called AC3488
B8: PSMA.272 (bispecific antibody, V domains shown)
VH: B1 VHH with V33A, W34M, G49A, I51M, K101R, L102T
notes: TCE with CD3.23; also called AC3481
B9: PSMA.288 (bispecific antibody, V domains shown)
VH: B1 VHH with V33A, W34M, G49A, I51M, K101R
notes: TCE with CD3.23; also called AC3497
B10: PSMA.255 (bispecific antibody, V domains shown)
VH: B1 VHH with W34M, V37Y, G49A, K101R, L102Y
notes: TCE with CD3.23; also called AC3466
B11: PSMA.286 (bispecific antibody, V domains shown)
VH: B1 VHH with K101R
notes: TCE with CD3.23; also called AC3495
B12: PSMA.280 (bispecific antibody, V domains shown)
VH: B1 VHH with V33A, W34M, G49A, I51M, K101R, L102M
notes: TCE with CD3.23; also called AC3489
B13: PSMA.253 (bispecific antibody, V domains shown)
VH: B1 VHH with W34M, V37Y, G49A, K101R, L102W
notes: TCE with CD3.23; also called AC3464
B14: PSMA.275 (bispecific antibody, V domains shown)
VH: B1 VHH with W34M, V37F, G49A, I51M, K101R, L102T
notes: TCE with CD3.23; also called AC3484
B15: PSMA.269 (bispecific antibody, V domains shown)
VH: B1 VHH with W34F, K101R, L102T
notes: TCE with CD3.23; also called AC3478
B16: PSMA.281 (bispecific antibody, V domains shown)
VH: B1 VHH with W34F, G49A, I51M, K101R, L102M
notes: TCE with CD3.23; also called AC3490
B17: PSMA.251 (bispecific antibody, V domains shown)
VH: B1 VHH with W34M, V37Y, G49A
notes: TCE with CD3.23; also called AC3462
B18: PSMA.278 (bispecific antibody, V domains shown)
VH: B1 VHH with K101R, L102M
notes: TCE with CD3.23; also called AC3487
B19: PSMA.256 (bispecific antibody, V domains shown)
VH: B1 VHH with W34M, V37Y, G49A, I51M, K101R
notes: TCE with CD3.23; also called AC3467
B20: PSMA.270 (bispecific antibody, V domains shown)
VH: B1 VHH with K101R, L102T
notes: TCE with CD3.23; also called AC3479
B21: PSMA.252 (bispecific antibody, V domains shown)
VH: B1 VHH with W34M, V37Y, G49A, I51M, K101R, L102W
notes: TCE with CD3.23; also called AC3463
B22: PSMA.257 (bispecific antibody, V domains shown)
VH: B1 VHH with W34M, V37Y, G49A, K101R
notes: TCE with CD3.23; also called AC3468
B23: PSMA.264 (bispecific antibody, V domains shown)
VH: B1 VHH with V33A, W34M, G49A, I51M
notes: TCE with CD3.23; also called AC3473
B24: PSMA.250 (bispecific antibody, V domains shown)
VH: B1 VHH with W34M, V37Y, G49A, I51M
notes: TCE with CD3.23; also called AC3461
B25: PSMA.283 (bispecific antibody, V domains shown)
VH: B1 VHH with W34M, V37F, G49A, I51M, K101R, L102M
notes: TCE with CD3.23; also called AC3492
B26: PSMA.287 (bispecific antibody, V domains shown)
VH: B1 VHH with W34M, V37F, K101R
notes: TCE with CD3.23; also called AC3496
B27: PSMA.289 (bispecific antibody, V domains shown)
VH: B1 VHH with W34F, G49A, I51M, K101R
notes: TCE with CD3.23; also called AC3498
B28: PSMA.277 (bispecific antibody, V domains shown)
VH: B1 VHH with W34F, K101R, L102M
notes: TCE with CD3.23; also called AC3486
B29: PSMA.254 (bispecific antibody, V domains shown)
VH: B1 VHH with W34M, V37Y, G49A, I51M, K101R, L102Y
notes: TCE with CD3.23; also called AC3465
B30: PSMA.282 (bispecific antibody, V domains shown)
VH: B1 VHH with G49A, I51M, K101R, L102M
notes: TCE with CD3.23; also called AC3491
B31: PSMA.266 (bispecific antibody, V domains shown)
VH: B1 VHH with G49A, I51M
notes: TCE with CD3.23; also called AC3475
B32: PSMA.261 (bispecific antibody, V domains shown)
VH: B1 VHH with W34F
notes: TCE with CD3.23; also called AC3470
B33: PSMA.291 (bispecific antibody, V domains shown)
VH: B1 VHH with W34M, V37F, G49A, I51M, K101R
notes: TCE with CD3.23; also called AC3500
B34: PSMA.274 (bispecific antibody, V domains shown)
VH: B1 VHH with G49A, I51M, K101R, L102T
notes: TCE with CD3.23; also called AC3483
B35: PSMA.260 (bispecific antibody, V domains shown)
VH: B1 VHH with V33A, W34M
notes: TCE with CD3.23; also called AC3469
B36: PSMA.284 (bispecific antibody, V domains shown)
VH: B1 VHH with V33A, W34M, K101R
notes: TCE with CD3.23; also called AC3493
B37: PSMA.267 (bispecific antibody, V domains shown)
VH: B1 VHH with W34M, V37F, G49A, I51M
notes: TCE with CD3.23; also called AC3476
B38: PSMA.271 (bispecific antibody, V domains shown)
VH: B1 VHH with W34M, V37F, K101R, L102T
notes: TCE with CD3.23; also called AC3480
B39: PSMA.268 (bispecific antibody, V domains shown)
VH: B1 VHH with V33A, W34M, K101R, L102T
notes: TCE with CD3.23; also called AC3477
B40: PSMA.273 (bispecific antibody, V domains shown)
VH: B1 VHH with W34F, G49A, I51M, K101R, L102T
notes: TCE with CD3.23; also called AC3482
B41: PSMA.285 (bispecific antibody, V domains shown)
VH: B1 VHH with W34F, K101R
notes: TCE with CD3.23; also called AC3494
B42: PSMA.276 (bispecific antibody, V domains shown)
VH: B1 VHH with V33A, W34M, K101R, L102M
notes: TCE with CD3.23; also called AC3485
B43: PSMA.290 (bispecific antibody, V domains shown)
VH: B1 VHH with G49A, I51M, K101R
notes: TCE with CD3.23; also called AC3499
B44: CD3.110 (bispecific antibody, V domains shown)
VH: B1 VH
VL: B1 VL with L68T
notes: paTCE with PSMA.5; also called AC3439; L66T

What follows are binders tested against T2, human CD3 epsilon (human, UniProt P07766 23-126, limits assumed) (assay: Octet, crude lysate).
T2 construct: also called huCD3e
T2 sequence (P07766 23-126 limits assumed): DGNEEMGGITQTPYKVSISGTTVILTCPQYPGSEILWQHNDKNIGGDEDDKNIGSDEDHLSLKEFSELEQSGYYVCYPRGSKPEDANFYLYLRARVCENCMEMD
Method: (§1) Pool 2 consisted of paTCE molecules each containing PSMA.262 and one of 64 CD3.23 mutation combination variants. Stability and affinity of the individually expressed molecules in the form of crude lysate was evaluated by Octet. […] The binding of these anti-CD3 molecules (CD3.227, CD3.228, CD3.229 and CD3.230) to human and cynomolgus CD3 was measured by Octet and the Tm was measured by Differential Scanning Fluorimetry. All variants were paired with PSMA.262 except for CD3.23 which was paired with PSMA.5.
B1 showed a Kd of 13.5 nM. Binder B2 has a Kd of 8.2 nM. B3 gave a Kd of 6.2 nM. B4 showed a Kd of 13.5 nM.

These binders were tested against T3, human PSMA-Fc (human, UniProt Q04609 44-750) (assay: Octet, PSMA-Fc).
T3 construct: also called Human PSMA-Fc fusion
T3 sequence (Q04609 44-750 limits assumed): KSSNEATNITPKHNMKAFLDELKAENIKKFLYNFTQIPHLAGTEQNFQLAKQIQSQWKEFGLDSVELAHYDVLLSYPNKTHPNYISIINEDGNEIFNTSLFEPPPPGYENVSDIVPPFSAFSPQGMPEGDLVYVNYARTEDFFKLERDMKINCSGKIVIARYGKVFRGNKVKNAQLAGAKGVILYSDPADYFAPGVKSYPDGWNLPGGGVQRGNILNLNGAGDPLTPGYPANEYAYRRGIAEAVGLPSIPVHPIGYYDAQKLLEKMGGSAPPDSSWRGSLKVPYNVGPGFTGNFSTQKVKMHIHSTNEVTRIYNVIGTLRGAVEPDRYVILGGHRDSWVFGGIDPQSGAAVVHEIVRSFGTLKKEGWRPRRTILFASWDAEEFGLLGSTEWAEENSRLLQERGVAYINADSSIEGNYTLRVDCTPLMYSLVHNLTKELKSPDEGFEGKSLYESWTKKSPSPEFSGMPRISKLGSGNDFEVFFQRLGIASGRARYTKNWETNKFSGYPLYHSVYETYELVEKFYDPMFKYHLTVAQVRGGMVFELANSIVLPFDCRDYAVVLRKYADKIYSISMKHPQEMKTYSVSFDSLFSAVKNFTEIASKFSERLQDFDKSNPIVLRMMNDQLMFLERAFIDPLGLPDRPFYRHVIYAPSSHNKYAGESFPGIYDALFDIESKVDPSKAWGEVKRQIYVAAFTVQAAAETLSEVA
Method: Binding affinity of select PSMA PTE variants was tested by Octet.
With B5 the Kd was 2.3 nM, the koff was 0.000235 s⁻¹ and the kon was 96300 M⁻¹ s⁻¹.

The binders below were run against T3, human PSMA-Fc (assay: Octet).
In the case of B5, the Kd is reported as 2.3 nM, the koff is reported as 0.00024 s⁻¹ and the kon is reported as 96000 M⁻¹ s⁻¹.

Each binder was assayed against huCD3e-Fc (human, UniProt P07766 23-126) (assay: Octet, purified).
Sequence of huCD3e-Fc (P07766 23-126): as the sequence (P07766 23-126 limits assumed) above
Method: as §1
In the case of B2, the Kd is reported as 57 nM, the koff is reported as 0.0196 s⁻¹ and the kon is reported as 342000 M⁻¹ s⁻¹. B3 showed a Kd of 69 nM, a koff of 0.0217 s⁻¹ and a kon of 317000 M⁻¹ s⁻¹.

The binders below were run against T1, cyCD3e-Fc (assay: Octet, purified).
Method: as §1
In the case of B2, the Kd is reported as 80 nM, the koff is reported as 0.0253 s⁻¹ and the kon is reported as 315000 M⁻¹ s⁻¹. For B3, the Kd was 80 nM, the koff was 0.0266 s⁻¹ and the kon was 334000 M⁻¹ s⁻¹.

Each binder was assayed against T4, human PSMA (human, UniProt Q04609 44-750, limits assumed) (assay: binding screen).
T4 construct: also called huPSMA; hPSMA
T4 sequence (Q04609 44-750 limits assumed): as the sequence (Q04609 44-750 limits assumed) above
B6 showed a Kd of 3.9 nM. B7 showed a Kd of 2.3 nM. Binder B8 has a Kd of 504 nM. B9 showed a Kd of 6 nM. Binder B10 has a Kd of 18.9 nM. B11: no binding. B12 gave a Kd of 16.3 nM. Binder B13 has a Kd of 8.5 nM. B14 showed a Kd of 20.5 nM. Binder B15 has a Kd of 5.5 nM. B16 gave a Kd of 5.3 nM. For B17, the Kd was 5.1 nM. With B18 the Kd was 3.9 nM. In the case of B19, the Kd is reported as 3.4 nM. With B20 the Kd was 6.5 nM. Work on B21 yielded a Kd of 15.9 nM. Work on B1 yielded a Kd of 2.7 nM. B22 showed a Kd of 2.3 nM. Binder B23 has a Kd of 18.6 nM. B24 was tested, and the Kd was 6.2 nM. Work on B25 yielded a Kd of 3.5 nM. For B26, the Kd was 2.3 nM. With B27 the Kd was 6.2 nM. Work on B28 yielded a Kd of 3.1 nM. With B29 the Kd was 41 nM. B30 was tested, and the Kd was 8.7 nM. Work on B31 yielded a Kd of 4.6 nM. In the case of B32, the Kd is reported as 2.1 nM. Binder B33 has a Kd of 2.6 nM. B34 was tested, and the Kd was 39.6 nM. B35 was tested, and the Kd was 11.4 nM. Work on B36 yielded a Kd of 4.1 nM. B37 showed a Kd of 5.6 nM. B38 showed a Kd of 9.1 nM. Binder B39 has a Kd of 131 nM. For B40, the Kd was 16.6 nM. With B41 the Kd was 3.1 nM. Work on B42 yielded a Kd of 10.5 nM. B43 showed a Kd of 5.5 nM.

Target: T2, human CD3 epsilon
Test: Octet, crude lysate
Remark: another data set of the same source
Text: To achieve this, Pool 1 was created, which included 74 paTCE molecules, each containing PSMA.5 and one of the 74 CD3.23 mutation variants. Single mutations were chosen based on analyses including CD3.23 PTE score analysis (using internal PTE algorithm v12) and structural analysis. Structural considerations included: possible contact disruption, anticipated steric clashes, side chain charge maintenance and possible pockets filling. Stability and affinity of the individually expressed molecules in the form of crude lysate was evaluated by Octet (ForteBio).
B44 gave a Kd of 8.9 nM. B4 was tested, and the Kd was 11.4 nM.
